The target of test [1] is T1, angiotensin II type 1 receptor (AT1R) with FLAG peptide fused to its N-terminus (human, UniProt P30556 2-359).
T1 construct: also called AT1R-angiotensin II complex
T1 sequence: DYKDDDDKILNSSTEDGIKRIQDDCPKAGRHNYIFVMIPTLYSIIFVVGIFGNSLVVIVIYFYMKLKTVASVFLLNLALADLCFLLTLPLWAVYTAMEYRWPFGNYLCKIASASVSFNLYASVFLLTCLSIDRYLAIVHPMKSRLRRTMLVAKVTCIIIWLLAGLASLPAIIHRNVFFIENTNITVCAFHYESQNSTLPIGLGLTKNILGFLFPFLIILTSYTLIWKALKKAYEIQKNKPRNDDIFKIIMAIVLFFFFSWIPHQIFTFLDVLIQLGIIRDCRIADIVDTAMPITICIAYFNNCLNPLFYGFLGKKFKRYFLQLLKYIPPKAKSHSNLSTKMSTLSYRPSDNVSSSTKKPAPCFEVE
Nature of the test: on-yeast binding assay: yeast-displayed nanobody, titration of AT1R-angiotensin II complex, single replicate, EC50 from curve fit.

In test [2] the target is T1, angiotensin II type 1 receptor (AT1R) …. The test is described as follows: radioligand competition binding assay on AT1R (nanobody stabilises agonist binding in the presence of antagonist; radioligand not named), three independent experiments; column headed Affinity. (Loss of bound radioactivity is the signal in a displacement assay; it reports binding, not function.)
Test [3] addresses human serum albumin (HSA) (human, UniProt P02768 25-609). Nature of the test: on-yeast binding assay: yeast-displayed nanobody, titration of HSA, n=3, EC50 from curve fit.

The values that follow come from patent publication US20240182911A1 (University of California, published 2024).

B1: AT110 (VHH)
VHH: QVQLQESGGGLVQAGGSLRLSCAASGNIFDADIMGWYRQAPGKERELVASITDGGSTNYADSVKGRFTISRDNAKNTVYLQMNSLKPEDTAVYYCAAIAYPDIPTYFDYDSDYFYWGQGTQVTVSS
notes: also called nanobody AT110
In test [1], B1 registered an EC50 of 0.257 µM. In test [2], the IC50 is 0.05 µM.

B2: AT110i101 (VHH)
VHH: QVQLQESGGGLVQAGGSLRLSCAASGNIFDADIMGWYRQAPGKERELVASITDGGSTNYADSVKGRFTISRDNAKNTVYLQMNSLKPEDTAVYYCAAVAYPDIPTYFDYDSDYFYWGQGTQVTVSS
notes: also called AT110 I98V; dominant mutation 198V (so in the source)
Turning to B2, the response in test [1] was half-maximal at 0.048 µM (EC50). In test [2], the IC50 worked out at 0.015 µM.

B3: AT110i104 (VHH)
VHH: QVQLQESGGGLVQAGGSLRLSCAASGNIFDADIMGWYRQAPGKERELVASITDGGSTNYADSVKGHFTISRDNAKNTVYLQMNSLKPEDTAVYYCAAIAYPDIPTYFDYDSDYFYWGQGTQVTVSS
notes: also called AT110 R66H; single mutation R66H
The molecule B3 showed an EC50 in test [1] of 0.133 µM. Also, the IC50 in test [2] stood at 0.031 µM.

B4: AT110 Y113H (VHH)
VHH: QVQLQESGGGLVQAGGSLRLSCAASGNIFDADIMGWYRQAPGKERELVASITDGGSTNYADSVKGRFTISRDNAKNTVYLQMNSLKPEDTAVYYCAAIAYPDIPTYFDYDSDHFYWGQGTQVTVSS
notes: also called single mutation Y113H
In test [1], B4 registered an EC50 of 0.035 µM. Moreover, the IC50 in test [2] came out at 0.063 µM.

B5: AT110i103 (VHH)
VHH: QVQLQESGGGLVQAGGSLRLSCAASGNIFDADIMGWYRQAPGKERELVASITDGGSTNYADSVKGHFTISRDNAKNTVYLQMNSLKPEDTAVYYCAAVAYPDIPTYFDYDSDHFYWGQGTQVTVSS
As for B5, a half-maximal response in test [1] (EC50) required 0.02 µM. Besides, in test [2], the IC50 was 0.0025 µM.

B6: AT110i102 (VHH)
VHH: QVQLQESGGGLVQAGGSLRLSCAASGNIFDADIMGWYRQAPGKERELVASITDGGSTNYADSVKGHFTISRDNAKNTVYLQMNSLKPEDTAVYYCAAVAYPDIPTYFDYDSDYFYWGQGTQVTVSS
As to B6, the half-maximal effective concentration (EC50) in test [1] is 0.014 µM. Besides, in test [2], the IC50 worked out at 0.005 µM.

B7: AT110 R45C (VHH)
VHH: QVQLQESGGGLVQAGGSLRLSCAASGNIFDADIMGWYRQAPGKECELVASITDGGSTNYADSVKGRFTISRDNAKNTVYLQMNSLKPEDTAVYYCAAIAYPDIPTYFDYDSDYFYWGQGTQVTVSS
notes: also called dominant mutation R45C
The molecule B7 registered an EC50 in test [1] of 0.015 µM.

B8: Nb.b201i3 (VHH)
VHH: QVQLQESGGGLVQAGGSLRLSCAASGYISDAYYMGWYRQAPGKEREFVATITHGTNTYYADSVKGRFTISRDNAKNTVYLQMNSLKPEDTAVYYCAVLETRSYSFRYWGQGTQVTVSS
notes: also called Nb.b201 mutants
As to B8, the EC50 in test [3] was found to be 0.0054 µM.

B9: Nb.b201i1 (VHH)
VHH: QVQLQESGGGLVQAGGSLRLSCAASGYISDAYYMGWYRQAPGKERGFVATITHGTNTYYADSVKGRFTISRDNAKNTVYLQMNSLKPEDTAVYYCAVLETRSYSFRYWGQGTQVTVSS
notes: also called Nb.b201 mutants
As to B9, a half-maximal response in test [3] (EC50) required 0.008 µM.

B10: Nb.b201 (VHH)
VHH: QVQLQESGGGLVQAGGSLRLSCAASGYISDAYYMGWYRQAPGKEREFVATITHGTNTYYADSVKGRFTISRDNAKNTVYLQMYSLKPEDTAVYYCAVLETRSYSFRYWGQGTQVTVSS
notes: also called nanobody Nb.b201
Consider B10, for which, in test [3], the EC50 is 0.018 µM.

As a reminder, the EC50 is the midpoint of the concentration-response curve. Higher therefore signals a less potent agent. The IC50 is the point on the concentration scale where inhibition reaches its midpoint.
